Among the data in patent US20210363268A1 are Kd values, retold here.

By Kd is commonly meant the constant that tells how readily two partners part at equilibrium. Low readings indicate tighter binding, high ones weaker binding.

This assay addresses Biotinylated Human CD39-His. Briefly: MSD equilibrium; Fab.

Take SRF399-C: the Kd came to 0.053 nM.
